Assay results published in article doi:10.1101/2020.06.26.173310.
Where two headings read alike, the source gives them in different places.

Columns and labels:
[1] = biological target: response regulator from Agrobacterium fabrum (AtRR) (Agrobacterium fabrum strain C58) (UniProt Q7CY46); assay: SPR
[2] = biological target: bacteriophytochrome from Deinococcus radiodurans (DrBphP) (Deinococcus radiodurans strain R1) (UniProt Q9RZA4); assay: ITC
[3] = biological target: bacteriophytochrome from Deinococcus radiodurans (DrBphP) (Deinococcus radiodurans strain R1) (UniProt Q9RZA4); assay: ITC; remark: listed apart in the source
[4] = biological target: response regulator from Deinococcus radiodurans (DrRR) (Deinococcus radiodurans strain R1) (UniProt Q9RZA5); assay: SPR
[5] = biological target: response regulator from Deinococcus radiodurans (DrRR) (Deinococcus radiodurans strain R1) (UniProt Q9RZA5); assay: SPR; remark: listed apart in the source
[6] = biological target: response regulator from Deinococcus radiodurans (DrRR) (Deinococcus radiodurans strain R1) (UniProt Q9RZA5); assay: SPR; remark: listed apart in the source

bacteriophytochrome from Deinococcus radiodurans (DrBphP) (Deinococcus radiodurans strain R1), sequence (Q9RZA4 whole entry): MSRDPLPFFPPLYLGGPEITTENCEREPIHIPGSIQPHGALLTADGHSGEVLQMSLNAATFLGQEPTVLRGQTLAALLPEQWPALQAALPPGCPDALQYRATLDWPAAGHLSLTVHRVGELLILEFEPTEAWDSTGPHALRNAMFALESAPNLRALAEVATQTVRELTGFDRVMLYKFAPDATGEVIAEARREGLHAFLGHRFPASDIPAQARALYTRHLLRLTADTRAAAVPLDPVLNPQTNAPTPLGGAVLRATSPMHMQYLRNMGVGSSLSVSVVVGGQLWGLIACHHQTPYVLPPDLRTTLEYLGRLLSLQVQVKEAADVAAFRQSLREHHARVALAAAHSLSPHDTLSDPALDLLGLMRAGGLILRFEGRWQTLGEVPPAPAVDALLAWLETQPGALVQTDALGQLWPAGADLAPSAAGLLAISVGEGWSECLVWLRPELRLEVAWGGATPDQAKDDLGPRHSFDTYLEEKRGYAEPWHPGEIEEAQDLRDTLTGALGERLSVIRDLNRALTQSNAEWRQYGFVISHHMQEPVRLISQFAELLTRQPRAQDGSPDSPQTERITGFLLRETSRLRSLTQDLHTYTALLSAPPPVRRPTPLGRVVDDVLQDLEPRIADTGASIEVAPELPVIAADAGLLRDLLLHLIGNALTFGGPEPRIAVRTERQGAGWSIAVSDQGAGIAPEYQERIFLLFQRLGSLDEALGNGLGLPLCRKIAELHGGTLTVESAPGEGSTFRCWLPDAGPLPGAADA

For “phytochrome 1 from Agrobacterium fabrum strain C58 (AgP1) (from UniProt Q7CY45 1-736) (natural protein)”, the Kd [1] was greater than 200 µM.

For “response regulator from Deinococcus radiodurans (DrRR) (from UniProt Q9RZA5 1-149) (natural protein)”, the Kd [2] was 10.5 µM, the stoichiometry N [2] was 1 and the Kd [3] was 35 µM.

“bacteriophytochrome from Deinococcus radiodurans (DrBphP) (from UniProt Q9RZA4 1-755) (natural protein)” was tested, and the Kd [4] was 60 µM, the Kd [5] was 10 µM and the Kd [6] was 43 µM. For the same substance, the stoichiometry N [6] was 1.
